Data taken from US20190161754A1, “FLUORESCENT BIOSENSOR FOR 2', 3'-CGAMP” (The Regents of the University of California, priority 2016, published 2019).
Starred links: 1 amine or outer side, 2 acyl side, 3 side chain; linkers in the order of their positions; H or OH if unused. Positions of bridges follow the written chain, without caps; N, C: chain ends. Non-standard residues stand in square brackets, D forms with d. Residues, ends and D or L forms follow the SMILES beside them. Chains are numbered I, II in the order given. Actinocin(9to1) = Cc1c2oc3c(C)ccc(C(=O)[*:1])c3nc-2c(C(=O)[*:2])c(N)c1=O; NMeV = CN[C@H](C(=O)O)C(C)C; Sar = CNCC(=O)O

B1: Bh P1-5delC: Bh GEMM-II riboswitch fused to Spinach2 via 5 base-paired P1 stem with deletion of a single C, SEQ ID NO: 16 (nucleic acid)
chain: GATGTAACTGAATGAAATGGTGAAGGACGGGTCCAATAGGGAAGCAACGAAGCATAGCCTTTATATGGACACTTGGGTTATGTGGAGCTACTAGTGTAACCGGCCCTCTTTGTTGAGTAGAGTGTGAGCTCCGTAACTAGTTACATC
modifications: synthetic nucleic acid
B2: Bh P1-6 WT: GEMM-II riboswitch (Bacillus halodurans C-125)-Spinach2 biosensor, 6 base-paired P1 stem, SEQ ID NO: 12 (nucleic acid)
chain: GATGTAACTGAATGAAATGGTGAAGGACGGGTCCAAATAGGGAAGCAACGAAGCATAGCCTTTATATGGACACTTGGGTTATGTGGAGCTACTAGTGTAACCGGCCCTCCTTTTGTTGAGTAGAGTGTGAGCTCCGTAACTAGTTACATC
modifications: synthetic nucleic acid
B3: Bh P1-6 G103A: Bh P1-6 biosensor with G103A mutation in the binding pocket, SEQ ID NO: 18; G73A in b172, b180 likely the same (nucleic acid)
chain: GATGTAACTGAATGAAATGGTGAAGGACGGGTCCAAATAGGGAAGCAACGAAGCATAGCCTTTATATGGACACTTGGGTTATGTGGAGCTACTAGTGTAACCAGCCCTCCTTTTGTTGAGTAGAGTGTGAGCTCCGTAACTAGTTACATC
modifications: synthetic nucleic acid
notes: G73A, b180 likely the same

Legend:
cGAS [1] = target: T1, cGAS (Homo sapiens, UniProt Q8N884); assay: Thin-layer chromatography based (radiolabeled TLC) cGAS activity assay with DNA intercalators; format: biochemical; parameters: DNA-dependent human cGAS activity was assayed with recombinant full-length cGAS and HT-DNA; implied by Ni-NTA capture and imidazole elution; made in house; host or cells: BL21-RIL DE3 E. coli; details: 100 μM concentration
T1 sequence (Q8N884 whole entry): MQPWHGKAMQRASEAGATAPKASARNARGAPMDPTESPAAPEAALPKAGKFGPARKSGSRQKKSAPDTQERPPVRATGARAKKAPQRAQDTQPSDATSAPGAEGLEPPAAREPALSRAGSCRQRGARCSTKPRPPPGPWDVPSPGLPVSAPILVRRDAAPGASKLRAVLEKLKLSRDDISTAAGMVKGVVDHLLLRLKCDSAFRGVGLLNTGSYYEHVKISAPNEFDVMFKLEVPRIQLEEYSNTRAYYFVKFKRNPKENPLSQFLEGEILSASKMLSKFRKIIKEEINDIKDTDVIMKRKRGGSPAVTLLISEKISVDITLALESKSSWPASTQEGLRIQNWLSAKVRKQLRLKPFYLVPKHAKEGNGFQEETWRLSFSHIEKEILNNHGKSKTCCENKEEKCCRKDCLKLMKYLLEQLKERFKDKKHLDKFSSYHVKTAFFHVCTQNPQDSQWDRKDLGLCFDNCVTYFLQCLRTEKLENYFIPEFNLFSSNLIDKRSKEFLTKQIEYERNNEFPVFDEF
Experimental: Quinacrine intercalation can lengthen the B-form DNA helix but otherwise would not grossly alter conformation (Hossain et al., (2008). DNA intercalation by quinacrine and methylene blue: a comparative binding and thermodynamic characterization study. DNA Cell Biol 27, 81-90). To support the proposed mechanism of action, other DNA intercalators were tested for effects on cGAS activity. The radiolabeled TLC assay was employed in order to avoid possible complications in data interpretation from compounds interacting with the RNA biosensor. […] Importantly, the enzyme-independent effect of compounds on fluorescence of the RNA biosensors can easily be analyzed in control reactions, which allows one to distinguish compounds in the screen that likely interact with the DNA instead of the enzyme directly.
DNA-dependent human cGAS activity was assayed with recombinant full-length cGAS and HT-DNA (Sigma-Aldrich, St Louis, Mo.). cGAS (estimated final concentration 1.5 μM) or equal volumes of water were incubated with HT-DNA (final concentration 0.1 mg/ml) in the presence of 250 μM ATP and GTP and [a-32P] ATP or GTP (˜30 nM) as indicated. All reactions included 100 mM NaCl, 10 mM MgCl2, 40 mM Tris-HCl (pH 7.5), and reactions were incubated at 37° C. for 1.5 hr. Reactions were terminated with the addition of 5 U of alkaline phosphatase (New England Biolabs) and incubation at 37° C. for 30 min. One microliter of each reaction was spotted onto a PEI-Cellulose F thin-layer chromatography plate (EMD Millipore), and reaction products were separated with the use of 1.5 M KH2PO4 (pH 3.8) as solvent. Plates were dried and radiolabeled products were detected with a phosphor screen and the Typhoon phosphorimager (GE Life Sciences).

cGAS [2] = target: T1, cGAS; assay: cGAS inhibition assay read out by RNA-based fluorescent biosensor; format: biochemical; parameters: implied by Ni-NTA capture and imidazole elution; made in house; host or cells: BL21-RIL DE3 E. coli; details: decrease of signal independent of enzyme activity, called artefactual, read-out: apparent IC50
Experimental: To initiate the enzyme reaction, 0.5 μL of HT-DNA was added to 2.5 μL of 6× enzyme reaction solution containing cGAS, GTP, ATP and cGAS reaction buffer. Generally, final concentrations are 100m/mL HT-DNA, 1.5 μM cGAS, 200 μM GTP, 200 μM ATP, and cGAS reaction buffer (40 mM Tris-HCl (pH 7.5), 100 mM NaCl, 10 mM MgCl2). The reaction was incubated at 37° C. for 2 hours to allow the enzyme reaction to proceed. […] To initiate the fluorescent biosensor reaction, 3 μL of the enzyme reaction was added to 27 μL of biosensor reaction solution containing renatured RNA, DFHBI (or DFHBI-1T), and biosensor activation buffer. Final concentrations are 200 nM RNA, 10 μM DFHBI (or DFHBI-1T), 40 mM HEPES, pH 7.5, 125 mM KCl, 10 mM MgCl2, and 0.1×cGAS reaction buffer (40 mM Tris-HCl (pH 7.5), 100 mM NaCl, 10 mM MgCl2). […] For the inhibition assay, due to the fluorescence of Quinacrine dihydrochloride, DFHBI-1T was used instead. Samples containing only Quinacrine dihydrochloride of varied concentration in the buffer were used for background fluorescence subtraction.

cGAS [3] = details: radiolabeled TLC assay, Gray et al. 2015; cited from earlier work
Spinach2 aptamer = assay: Fluorescence of dye-binding Spinach2 aptamer in presence of quinacrine (control); details: dose-dependent (FIG. 10)
Excerpt: FIG. 10 illustrates dose-dependent loss of fluorescence in presence of QC for both the 2′, 3′-cGAMP biosensor and Spinach2 aptamer.
Quinacrine is a DNA intercalator that may disrupt biosensor function by intercalating into the RNA helices.

[4] = In vitro fluorescence assay of GEMM-II riboswitch-based biosensors with 2′,3′-cGAMP (binding affinity, turn-on); details: for fold turn-on / Kd: 200 nM RNA; for fold turn-on: 100 μM 2′,3′-cGAMP; for Kd: ligand 2′,3′-cGAMP, 37° C., 3 mM Mg2+, 10 μM DFHBI, read-out: Kd (apparent dissociation constant)
Experimental: (§1) In vitro fluorescence assays were carried out in a buffer containing 40 mM HEPES, pH 7.5, 125 mM KCl. Other conditions, including temperature, concentrations of MgCl2, DFHBI (or DFHBI-1T), ligand (or cell extract) and RNA were varied in different experiments and are indicated in the figures. The RNA was renatured in buffer at 70° C. for 3 min and cooled to ambient temperature for 5 min prior to addition to the reaction solution. DFHBI (or DFHBI-1T) was added to a solution containing buffer and ligand, and then RNA was added at the end before fluorescence measurement. Binding reactions were performed either in 100 μL volumes (96-well plate) or 30 μL (384-well plate) and were incubated at the indicated temperature in either a Corning Costar 3915 96-well black plate or Greiner 781077 384-well black plate until equilibrium was reached, which typically takes 30 to 60 minutes. The fluorescence emission was measured using a Molecular Devices SpectraMax Paradigm Multi-Mode detection platform plate reader (Sunnyvale, Calif.) with the following instrument parameters (for DFHBI): 448 nm excitation, 506 nm emission. In case of DFHBI-1T 470 nm excitation and 510 nm emission was used.
(§2) To measure the binding affinities of 2′, 3′-cGAMP biosensors, fluorescence assays were performed with the following conditions: 37° C., 3 mM MgCl2, 200 nM RNA, and 10 μM DFHBI. The 2′, 3′-cGAMP concentration (ccGAMP) was varied, and the fluorescence of the sample with DFHBI but no RNA was subtracted as background to determine relative fluorescence units. The ratio between the fraction of biosensor that is bound by 2′, 3′-cGAMP and the total 2′, 3′-cGAMP biosensor concentration is given as:
(§3) where Fmin is the fluorescence of the sample containing no 2′,3′-cGAMP, while Fmax is the fluorescence of the sample containing highest concentration of 2′,3′-cGAMP (100 μM). The dissociation constants Kd were determined by least squares fitting to the following equation in Graphpad Prism software: […]

[5] = In vitro fluorescence assay of GEMM-II riboswitch-based biosensors with c-di-GMP (binding affinity, turn-on); details: for Kd: ligand c-di-GMP; for fold turn-on: 100 nM RNA, 100 μM c-di-GMP
Experimental: as §1, §2, §3

[6] = In vitro fluorescence assay of GEMM-II riboswitch-based biosensors with 3′,3′-cGAMP (binding affinity, turn-on); details: for fold turn-on: 100 nM RNA, 100 μM 3′,3′-cGAMP; for Kd: ligand 3′,3′-cGAMP
Experimental: as §1, §2, §3

E. coli BL21-Star cells = assay: In vivo fluorescence assay by flow cytometry, biosensor co-expressed with cyclic dinucleotide synthases (WspR, DncV, cGAS); details: live E. coli, DFHBI-1T, DncV or cGAS co-expressed

Molecule	inhibition of cGAS activity (cGAS [1])	fold turn-on [4]	Kd [4] [µM]	Kd [5] [µM]	fold turn-on [5]	fold turn-on [6]	Kd [6] [µM]	other results
Cc1c2oc3c(C)ccc(C(=O)N[C@@H]4C(=O)N[C@H](C(C)C)C(=O)N5CCC[C@H]5C(=O)N(C)CC(=O)N(C)[C@@H](C(C)C)C(=O)O[C@@H]4C)c3nc-2c(C(=O)N[C@@H]2C(=O)N[C@H](C(C)C)C(=O)N3CCC[C@H]3C(=O)N(C)CC(=O)N(C)[C@@H](C(C)C)C(=O)O[C@@H]2C)c(N)c1=O [Actinomycin D] (I: T[dV]P[Sar][NMeV] / II: T[dV]P[Sar][NMeV]; ester I:1-I:C, II:1-II:C; linker I:N-II:N via Actinocin(9to1))	partial inhibition	–	–	–	–	–	–	–
CCN(CC)CCCC(C)Nc1c2ccc(Cl)cc2nc2ccc(OC)cc12 (centres unmarked) [Quinacrine]	fully inhibited	–	–	–	–	–	–	IC50 (cGAS [2]): 39 ± 7 µM; IC50 (cGAS [3]): 13 µM; effect on fluorescence of Spinach2 aptamer (Spinach2 aptamer): decreased fluorescence
CN(C)c1ccc2nc3ccc(=[N+](C)C)cc-3sc2c1 [methylene blue]	no effect	–	–	–	–	–	–	–
B1	–	(5.1x) fold	13.4 ± 0.9	0.021 ± 0.008	–	–	–	–
B2	–	–	–	0.056	(13.1x) fold	(10.8x) fold	> 11	fluorescence response to 2′,3′-cGAMP (in words) ([4]; 20 μM ligand): no response; fluorescence activation with c-di-GMP ([5]; FIG. 17, panel B screen): 5 fold; Kd ([6]; listed as wild-type Bh P1-6): > 10 µM
B3	–	(10.3) fold	> 65	> 7.4	(8.2x) fold	(9.6x) fold	0.8	fluorescence activation in response to 2′,3′-cGAMP ([4]; 200 nM biosensor, 20 μM ligand): 5 fold; reduction of binding affinity to c-di-GMP relative to wild-type Bh P1-6 ([5]; G103A versus wild-type): more than 125 fold; cellular fluorescence activation upon co-expression of each enzyme (E. coli BL21-Star cells): Significant fluorescence activation; increase of binding affinity to 3′,3′-cGAMP relative to wild-type Bh P1-6 ([6]; G103A versus wild-type): more than 10 fold
